Test results taken from publication PMC7327521 (Journal of Molecular Biology, 2020).
Changes are numbered by the printed parent chain. Square brackets hold non-standard residues; d marks the D form. Ends that are not written are not given here. pY = N[C@@H](Cc1ccc(OP(=O)(O)O)cc1)C(=O)O

Tests used:
Assay in all cases: fluorescence polarisation
[1] = target: T1, Spt6 from S. cerevisiae lacking the first unstructured 297 residues (Spt6ΔN) (S. cerevisiae, UniProt P23615 298-1451)
T1 sequence (looked up): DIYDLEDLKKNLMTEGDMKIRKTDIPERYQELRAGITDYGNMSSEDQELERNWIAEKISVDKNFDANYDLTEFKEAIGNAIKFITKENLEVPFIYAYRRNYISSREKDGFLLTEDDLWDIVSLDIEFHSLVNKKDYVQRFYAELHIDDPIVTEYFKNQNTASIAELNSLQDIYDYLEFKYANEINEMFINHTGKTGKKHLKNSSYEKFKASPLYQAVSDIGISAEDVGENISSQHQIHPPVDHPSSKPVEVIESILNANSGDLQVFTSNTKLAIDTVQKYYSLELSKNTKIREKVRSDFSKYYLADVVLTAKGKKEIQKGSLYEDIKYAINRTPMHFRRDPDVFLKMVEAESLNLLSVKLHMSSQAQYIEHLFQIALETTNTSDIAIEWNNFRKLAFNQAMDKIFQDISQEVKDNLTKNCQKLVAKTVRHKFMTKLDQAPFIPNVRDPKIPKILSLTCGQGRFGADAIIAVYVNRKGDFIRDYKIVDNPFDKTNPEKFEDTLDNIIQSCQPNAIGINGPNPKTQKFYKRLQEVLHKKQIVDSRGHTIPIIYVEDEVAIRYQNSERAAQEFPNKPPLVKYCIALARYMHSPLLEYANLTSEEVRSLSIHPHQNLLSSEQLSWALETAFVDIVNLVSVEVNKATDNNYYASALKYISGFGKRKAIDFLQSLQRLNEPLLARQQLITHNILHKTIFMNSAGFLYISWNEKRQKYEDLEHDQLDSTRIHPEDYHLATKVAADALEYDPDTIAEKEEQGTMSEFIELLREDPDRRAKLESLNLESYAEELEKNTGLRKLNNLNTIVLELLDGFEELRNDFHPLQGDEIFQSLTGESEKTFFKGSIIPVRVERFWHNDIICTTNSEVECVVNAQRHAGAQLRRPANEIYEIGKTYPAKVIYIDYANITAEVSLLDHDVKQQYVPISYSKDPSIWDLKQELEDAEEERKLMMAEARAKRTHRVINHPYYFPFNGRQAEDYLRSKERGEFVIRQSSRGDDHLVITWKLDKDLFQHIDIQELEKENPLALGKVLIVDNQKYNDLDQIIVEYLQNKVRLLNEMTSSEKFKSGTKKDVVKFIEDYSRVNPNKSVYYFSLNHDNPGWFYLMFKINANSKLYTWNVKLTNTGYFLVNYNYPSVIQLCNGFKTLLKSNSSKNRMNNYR

[2] = target: T2, N-terminal SH2 domain of C. glabrata Spt6 (Spt6-N-SH2) (C. glabrata, UniProt Q6FLB1 1250-1354)
T2 sequence (looked up): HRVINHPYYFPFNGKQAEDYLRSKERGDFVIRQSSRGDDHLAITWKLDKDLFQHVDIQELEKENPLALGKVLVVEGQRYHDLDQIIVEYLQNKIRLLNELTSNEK

[3] = target: T3, Spt6-tSH2 R1281A/S1283A (C. glabrata, UniProt Q6FLB1 1250-1444, R1281A | S1283A)
T3 sequence (looked up): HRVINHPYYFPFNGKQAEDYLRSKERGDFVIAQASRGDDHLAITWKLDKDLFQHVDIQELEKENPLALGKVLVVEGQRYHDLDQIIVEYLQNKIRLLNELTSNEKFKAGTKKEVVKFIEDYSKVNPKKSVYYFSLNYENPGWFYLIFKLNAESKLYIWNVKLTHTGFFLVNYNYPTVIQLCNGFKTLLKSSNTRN

[4] = target: T4, Spt6-tSH2 R1281A/S1284A (C. glabrata, UniProt Q6FLB1 1250-1444, R1281A | S1284A)
T4 sequence (looked up): T3 sequence (looked up) with A34S, S35A

[5] = target: T5, Spt6-tSH2 E1324A (C. glabrata, UniProt Q6FLB1 1250-1444, E1324A)
T5 sequence (looked up): T3 sequence (looked up) with A32R, A34S, E75A

[6] = target: T6, Spt6-tSH2 S1284A (C. glabrata, UniProt Q6FLB1 1250-1444, S1284A)
T6 sequence (looked up): T3 sequence (looked up) with A32R, A34S, S35A

[7] = target: T7, Spt6-tSH2 R1281A/S1283A/R1285A (C. glabrata, UniProt Q6FLB1 1250-1444, R1281A | S1283A | R1285A)
T7 sequence (looked up): T3 sequence (looked up) with R36A

With {5,6‑FAM}-PS[pY]SPTSPS[pY]SPTSPS [(pY1-CTD)2, FAM-labelled tyrosine-phosphorylated CTD diheptad] the Kd [1] was 4 ± 0.5 µM, the Kd [2] was 313 µM and the Kd [3] was 35.5 µM. It also gave a Kd [4] of 11.4 µM, a Kd [5] of 1.4 µM and a Kd [6] of 8.2 µM. For the same binder, the Kd [7] was 16.5 µM.
